Patent US20150216990A1 (TUFTS MEDICAL CENTER, published 2015)
The star is where a group is joined. Palmitoyl = CCCCCCCCCCCCCCCC(=O)*

Target: T1, human PAR1 (thrombin receptor) on human platelets (human, UniProt P25116 42-425)
T1 sequence (looked up): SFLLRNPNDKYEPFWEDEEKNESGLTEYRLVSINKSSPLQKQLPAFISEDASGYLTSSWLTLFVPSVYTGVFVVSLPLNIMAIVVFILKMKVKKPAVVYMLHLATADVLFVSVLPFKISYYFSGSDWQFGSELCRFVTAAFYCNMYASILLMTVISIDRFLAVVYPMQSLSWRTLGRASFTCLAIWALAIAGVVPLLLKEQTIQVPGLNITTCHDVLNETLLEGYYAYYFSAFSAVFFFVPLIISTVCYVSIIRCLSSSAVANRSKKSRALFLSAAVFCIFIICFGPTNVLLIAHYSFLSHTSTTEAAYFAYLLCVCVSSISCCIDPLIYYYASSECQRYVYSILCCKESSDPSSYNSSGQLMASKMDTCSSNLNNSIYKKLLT
Test: cell-based or functional assay

Binder: Palmitoyl-KKSRALF-NH2 (also: acetate salt) [PZ-128 (palmitate-KKSRALF-NH2)]
- right shift of thrombin-induced aggregation of human platelets: 5 fold
